Target: ectodomain of the S protein of SARS-CoV-2 B.1.1.7 (S-UK) (SARS-CoV-2) (UniProt P0DTC2)
Assay: cryo-EM structure

ectodomain of the S protein of SARS-CoV-2 B.1.1.7 (S-UK) (from UniProt P0DTC2 14-1208) (domain or fragment)
stoichiometry N: 3 protomers
